Measurements from the nanobody polyreactivity screen of Harvey et al. (2022).

assay: yeast display, Sf9 membrane polyspecificity reagent, FACS + sequencing; frameworks hold sequencing errors
Outline: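 Galactose-induced (36–48 hours) yeast carrying a synthetic nanobody display library were exposed to 10% biotinylated, detergent-solubilized Sf9 membrane reagent at 4 °C for 1 hour. FACS followed streptavidin microbead enrichment, using low and high (top ~1%) gates for expression (anti-HA) and reagent binding (streptavidin). Colony PCR, MiSeq 2 × 250 sequencing and CDR-length filtering followed. Labels for polyreactivity reflect the gate of origin.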

Sequence	polyreactivity (PSR sort gate)
QVQLVESVGGLVQAGGSLRLSCAASGIIFWLSTMGWYRQAPGKERELVAAITSGGSTYYADSVKGRLTISRDNAKNTVYLQMNSLKQEDTALYYCAAVPRYRRWKYDYWGQGTQVTVSS	high polyreactivity
QVQLVESGGGLVQAGGSLRLSCAASGIFGGYAMGWYRQAPGKERELVAAIRYSSGSTYYADSVKGRFTISRDNAKNTVYLQMKSLKPEDTAVYYCAAEVVEAPDNDYWGQGTQVTVSS	low polyreactivity
QVQLVDAGGRLVQAGGSLRLSCAASGRIFAYYAMGWSRQAPGKDRELVSGISQRGSRTYYADSVKGRFTISRDNEKNTVYLQMNSLKPEDTAVYYCNTQRWGSGVGSLMDYWGQGTQVTVSS	high polyreactivity
QVQLVESGGGLVQAGGSLRLSCAASGSTFDGNAMGWYRPAPGKVRELVAAITRAGRTSYADSVKGRFTISRDNAKNTVYLQMNSLKPEDTAVYYCAKGGYDYWGQGTQVTVSS	low polyreactivity
QVQLVESGGGLVQAGGSLRLSCAASGFIFPYYGMGWYRQAPGKERELVATISRSGGRTYYADSVKGRFTISRDNAKNTVYLQMNSLKPEDTAVYYCARTTPYFYVDWGGYDYWGQGTQVTVSS	high polyreactivity
QVQRVESGGRLVQAGGILRVSCAASGGTFGINAMGWYRQSPGKEREFVAAITRGDGSTYYADSVKGRFTISRDNAKNTVFIQMKSLKPEDTAVYYCAKRYFVYYSMDYWGQGTQVTVSS	low polyreactivity
QVQLVESGGGLVQAGGSLRLSCAASGITFSRYAMGWYRQAPGKERELVAAITVSGGTTYYADSVKGRFTISRDNAKNTVYLQMNSLKPEDTAVYYCAAVRRKTAGGLEDYWGQGTQVTVSS	high polyreactivity
QVQLVESGGCLVQAGGSQRLSCAASGIIFEGYAMRWYRQAPGRERELVAAISQSGGSTRYADSVKGRFTISRDNAKNTVYLQMNRLKAEDTAVYYCAKEVWNWGPYYYWGQGSQVTVSS	low polyreactivity
QVQLVESVVGLVQAGVSLRLSCAASGFIVYANAMGWYRQAPGKERELVAAISRGTSTYYADSVKGRFTISRDNAKNTVYLQMTSLKPEDTAVYYCATYYYRPWGGYYWGQGTQVTVSS	high polyreactivity
QVQLVESGGGLVQAGGSLRLSCAASGSIFYHNAMGWYRQAPGKERELVAAITWSGSTTYYADSVKGRFTISRDNAKNTVYLQMKSLKPEDTAVYYCNAGNRHGHYDYWGQGTQVTVSS	low polyreactivity
QVQLVDSGGGLVQAGGSLRLTCAASARTFHYYAMGWYREAPGKERELVAAITSSGGSTYADSVKGRFTISRDNAKNTVYLQMNSLKPEDTAVYYCARDRYDNPYDQELDYWGQGTQVTVSS	low polyreactivity
QVQLVESGGGLVQAGGSLRLSCAHSGYILGGYGMGWYRQAPGKERELVAVITSSGSTDYADSVKGRYTISRDNAMNTVYVQMNTLKPEDSAGYYCAADFLWYIYNIGTSLEYDYWGQGTQVTVSS	low polyreactivity
QVQLVESGGGLVQAGGSLRLSCAASGRTFKLYAMGWYRQAPGKERELVAAISRSGGSTYYADSVKGRFTISRDNAKNTVYLQMNSLKPEDTAVYYCNRRQGYHGDYDYWGQGTQVTVSS	high polyreactivity
QVQLVESGGGLVQAGGSLRLSCAASGSIFDYNAMGWYRQAPGKEREYVAANTWGSGSTYYADSVKGRFTNSRDNAKNTVYLQMNSLKPEDTAVYYCNADDYGGSTGRKGRYNYWGQGTQVTVSS	low polyreactivity
QVQLVESGGGLVQAGGSLRLSCAASGRIFGKYVMGWYRQAPGKERELVAGISWSAGSTYYADSVKGRYTISRDNAKYTVYLQMNSLKPEDTAVYYCAAGLEGGYDYWGQGTQVTVSS	low polyreactivity
QVQLVESGGGLVQAGGSLRLSCAASGRIFDLYTMGWYRQATGKERELVAAIRWSDGSTYYADSVKGRFTISRDNAKNSVYLQMNSLKPVDTAVYYCAADTRTSYYNDDYDYWGQGTQVTVSS	low polyreactivity
QVQLVESGGGLVQAGGSLRLSCAASGRTFPVYAMGWYRQAPGKERELVAAIRARSVRTYYADSVKGRFTISRDNAKNTVYLQMNSLKPEDTAVYYCAAYYLNPGMDYWGQGTQVTVSS	high polyreactivity
QDQLVESGGGLVQAGGSLRFSCAASGRIFTYYTMGWYRQAPGKERELVARITFSAGRTYYADSVKGRFTISRDNAKNTVYLQMNSLKPEDTAVYYCAARSYHYRNYYWGQGTQVTVSS	high polyreactivity
QVQLVESGGGLVQAGGSLRLSCAASGRIFGRDMGWYRQAPGKERELVATITWRGGSTYYADSVKGRFTISRDNAKNTVYLQMNSLKPEDTAVYYCTAALSHDYWHYRLGYWGQGTQVTVSS	low polyreactivity
QVQLVESGGGLLQAGGSLRLSCAASGSIFRYYAMGWYRQAPGKERELVATISTGGRTYYADSVKGRFTISRDNAKNTVYLQMNSLKPEVTAVYYCAAVRLTWTAKYNYWGQGTQVTVSS	high polyreactivity
QVQLVESGGGLVQAGGSLRLSCAASGRIFGRYAMGWYRQAPGKERELVAVISSGGSTYYADSVKGRFTISRDNAKNTVYLQMNSLKPDDTAVYYCAAVIRGGYDYWGQGTQVTVSS	low polyreactivity

Sequence	polyreactivity (PSR sort gate)
QVQLVESGGGLVQAGGSLRLSCAASGRTFRSYAMGWYRQAPGKERELVAGISYNGGSTYYADSVKGRFTISRDNAKNTVYLQMNSLKPADTAGYYCAATHHYRLYDYWGQGTQVNVSS	low polyreactivity
QVQLVESGGGLVQAGGSLRLSCAASGFIFSENAMGLYRPAPGKERELVAAISDAGGSTYYADSVKGRFTISRDNAKNTVYLQMNSLKPEDTAVYYCNAVYHPKGPSGYGYWGQGTQVTVSS	low polyreactivity
QVQLVESGGGLVQAGGSLRLSCADSGFTFWRYAMGWYRQAPGKERELVAAISWRGSSTYYADSVKGRFTISRDIAKNTVYLQMNSLKPEDTAVYYCARYQSTYDSTYNYWGQGTQVTVSS	high polyreactivity
QVQLVESGGGLVQAGGSIRLSCAASGRIFIYNVMGWYRQAPGKERELVATISTGGTTNYADSVKGRFTISRDNAKNTVYLQMNSLKPEETAVYYCIRGSGYWYLPAVKYDHWGQGTQVTVSS	low polyreactivity
QDQLVESGGGLVQAGGSLLLSCAASGGIFRFKAMGWYRQARGKERELVAAIIRGGSTYYADSVKGRFTISRDNAKNTVYLQMISLKPEDTAVYDCAADYEYRTKTRDGYYCGQGTQVTVSS	low polyreactivity
PVQLVESGGGLVQAGGSLRLSCAASGRIFVYNVMGWSRQATGKERELVAASRWSGGSTYADSVNGRYTISRDQAKNPVYLQIHSLKPEDTADYYCAARHYRRGDSWAQGTQVTVSS	high polyreactivity
QVQLVESGGGLVQAGGSLRLSTAASGSTLWYNDMGWFRKAPGKERELVASITSDGGSSTYADSVKGRFTISRDNEKNTVYLQMNSLKPEDTAVYYCAADWPIVQYDYWGQGTQVTVSS	low polyreactivity
QVQLVESGGGLVQAGGSLRLSCAAPGSTFVRYAMGWYRQAPGKERELVAAISKSGGSTYYADSVKGRFTISRDNAKNTVYLQMYSLKPEDTAVYYCAATTTRYSYEYWGQGTQVTVSS	low polyreactivity
QVQLVESGGGLVQAGGSLRLSCAASGRTLSFYAMGWYRQAPGKERELVASISSGGRTYYADSVKGRFTISRDNAKNTVYLQMNSLKPEDTAVYYCAVGYRSRYRSRDDYWGQGTQVTVSS	high polyreactivity
QVQLVESGGGLVQAGGSLRLSCAASGNTFQRYTMGWYRQAPGKERELVAAITWSGGNTYYADSVKGRFTISRDNAKNTVYLQMNSLKPEDTAVYYCATYYWLGLSLYDYWGQGTQVTVSS	low polyreactivity
QVQLVESGGGLVQAGGSLRLSCAASGRILVSYAMGWYRQAPGKERELVAAISRSGGSTYYADSVKGRFTISRDNAKNSVYLQMNSLKPEDSAVYYCNVYRFSRYDYWGQGTQVTVSS	high polyreactivity
QVQLVESGGGLVQAGGSLRLSCAASGSTFHKNAMGWYRQAPGKERELVAGITKRGGSTYYADSVKGRFTISRDNAKNTVYLQMNSLKPEDTAVYYCNADFPVGRTEYDYWGQGTQVTVSS	low polyreactivity
QVHLVESGGGLVQAGGRLRLSCAASGFTLRYYAMGWYRQAPGKESELVATINRSGASTYYADTVKGRFTISRDNAKNTVYLQMNSQKPEDTAVYYCKTATSRAYRYDYWGQGTQVTVSS	low polyreactivity
QVQLVESGGGLVQAGGSLRLSCAASGFIFPGNMGWYRQAPGKERELVAAISWSGGSTRYADSVKGRFTISRDNAKNTVYLQMNSLKPEDTAVYYCAASLSGKRFTKRYYWGQGTQVTVSS	high polyreactivity
QVQLVESGGGLVQAGGSLRLSCAASGFIFKGNAMGWYRQAPGKERELVAAISYSGGSTYYADSVKGRFTISRDNAKNTVYLQMNSLKPEDTAVYYCAALRWYHYGYWGQGTQVNVSS	high polyreactivity
QVQLVESGGGLVQAGGSLRLSCAASGSILVSNDMGWYRQAPGKERELVAAISWSGGSTYYADSVKGRFTISRDNAKNTVYLQMNSLKPEDTAVYYCATGVALRYGYWGQGTQVTVSS	low polyreactivity
QVQLVESGGGLVQAGGSLRLSCAASGRTFPAYTMGWYRPAPGKERELVAAIRWSGGRTRYADSVKGRFTISRDNAKNTVYLQMNSLKPEDTAVYYCAAYRLSKPFYKYDYWGQGTQVTVSS	high polyreactivity
QVQLVESGGGLVQAGCSLRLSCAASGSTFPYNSMGWYRQAPGKERELVAAITSSGRTNYADSVKGRFTISRDNAKNTVYLQMNSLKPEDTAVYYCAAARWYAHRVDYWGQGTQVTVSS	low polyreactivity
QFQLVESGGGLVQAGGSLRLSCAASGSTFYTTDMGWYRQAPGKERELVASITSAGNTNYADSVKGRFTISRDNAKNSVYLQMNSLKPEDTAVYYYYYYQYDYWGQGTQVTVSS	low polyreactivity
QVQLVESGGGLVQAGGSLRLSCAASGRTFGKYAMGWYRQAPGKERELVAVITWRGVSTYADSVKGRFTISRDNAKNTVYLQMNSLKPEDTSFYYCAKTRVRGTEFGYWGLGTQVTVSS	low polyreactivity
